Reference: the DeepSol protein solubility set

experiment: soluble on expression in E. coli; label from the status in PepcDB or PDB records

| Sequence | soluble on expression in E. coli |
| --- | --- |
| MGSSHHHHHHSSGLVPRGSEELQNKLEDVVIDRNLLILGKILGEGEFGSVMEGNLKQEDGTSLKVAVKTMKLDNSSQREIEEFLSEAACMKDFSHPNVIRLLGVCIEMSSQGIPKPMVILPFMKYGDLHTYLLYSRLETGPKHIPLQTLLKFMVDIALGMEYLSNRNFLHRDLAARNCMLRDDMTVCVADFGLSKKIYSGDYYRQGRIAKMPVKWIAIESLADRVYTSKSDVWAFGVTMWEIATRGMTPYPGVQNHEMYDYLLHGHRLKQPEDCLDELYEIMYSCWRTDPLDRPTFSVLRLQLEKLLESLPDV | soluble |
| MAGGPSALTLIARTSATGAQPLSLRARFPRTRPPMKKIPLAAADPDRLDTWVKYREGLCGECNATCCTLPVEVRIDDLIRMRLVDEFEREEPAKRIAKRLEKDGVIEHFNHKREIFTLTRMANGDCLYLDRKTRLCTIYARRPDTCRNHPRIGPRPGYCAYRPRLEHHHHHH | not soluble |
| MPSKKKKIVVIGRSNLQNLYIHTILLKKLPAEIYLIDEQAKTSVQDFEYASYYHSSATVNTGTFNECRSADLVLFFQEEMSNESFSNEDNLALIKEKVKKMMATGFQGIVLVATAESNIVASLIKHFSGLPANQIITPGTMLATSYFQVEIAKLFKISPKNVHGYIIGESTQDVIPVWSRAFLGGKPILSYLAEEQKRITSDDLQNLTNMITKIPDFPVETKDGCSFRFSTVTVLAELTEVILRDEARVLTVGVEVKEAYGLERPVFVSVPAVVGAEGVRELLELNLSDDEQKELKRITTKTTEKLGLLHNKGGIS | not soluble |
| MNKILLQCDNLCKRYQEGTVQTDVLHDVSFSIGEGEMMAIVGSSGSGKSTLLHLLGGLDTPTSGDVIFSGQPMSKLSSAAKAELRNQKLGFIYQFHHLLPDFTALENVAMPLLIGKKKPAEIDARAREMLHAVGLEHRATHRPSELSGGERQRVAIARALVNNPRLVLADEPTGNLDARNADSIFELLGELNRLQGTAFLVVTHDLQLAKRMSRQLEMRDGRLTAELSLMGAE | not soluble |
| MVSAMSNIWSNWSGFVTAEPRLIASPADAGELGDLVRTAPGPVRVVGAGHSFTPLVKSQGTILSLEKLEGLVSHDPQKHQARVKAGTRLGPLMHILQGIGQGLPNMGDIDRQAIGGALGTATHGSGPTLGAYHTQLETVQIVDGLGKVRDFTRAGDQDMIHAIGVALGAFGVLSEVTLNNIATYRLRRRKWVLPIGDMLRDFEKMMTAHRSAEFYYIPFSGYAQFIASDFSTEATTTRPTDDDEGSLRTLRRLRTGLAWLPSLRRRLILGAVAKVPSEDYVQDWLNVYASDRQTKFNEMEYHLPFEEGPKALAEIIELTEKRFPEVYFPMEVRSVAPDKFWLSPFYNRPTCSIAIHHDAASDPLPFMQAAEPIFRRYGGRPHWGKMHSLKAADFKKLYPRWDDAMAVRRDIDPQNRFVSPYMAGLFGIEPSPFGIDPLEHHHHHH | not soluble |
| MFREESRSVPVEEGEVYDVTIQDIARQGDGIARIEGFVIFVPGTKVGDEVRIKVERVLPKFAFASVVELEHHHHHH | not soluble |
| GSHMVPEPDLPHDLRHLNTEPMEIFRNSVKIEEIMPNGDPLLAGQNTVDEVYVSRPS | soluble |
| ADPVMLEVFNNLFMSIAEQMGYRLQNTAYSVNIKERLDFSCAIFDAAGNLIANAPHMPVHLGSMGESIKTVMRANASRMRPGDAYVVNDPYHGGTHLPDVTVITPVFDRAGRDILFFVGSRGHHADIGGTTPGSMPPDSRTVEDEGVLFTNFQLVGNGEFRDREAREILASGRWPARNPDQNIADLHAQIAANEKGVQELLRMCDHFGLDVVRAYMGHVQDNAEEAVRRVISVLKDGRYTYRLDNGAVIEVAVRVDRQARSAVVDFTGTSGQLENNFNAPGAIAVAAVLYVFRTLVDDEIPLNAGCLKPLEIIIPEGSMLRPNPPASVVAGNVETSMCIVNALYGALGVLAASQGTMNNFTFGNARYQYYETISGGTGAGPLRIDAAGPADAGFAGTSVVQAHMTNSRLTDPEVLELRFPVRLESYEIRHGSGGAGRYRGGDGGVRRVRFLEPMTAAILSNNRRHVPFGLAGGGAGAMGRNYVERADGRVEPLGPQDSAELAAGDVFVVETPGGGDYGPA | not soluble |
| MQFSCSIPLPATFRPGDILAFHRRDRQEIAERVNHASVQKAMIWCGAPAYLSISFEPGLAKASLVIDGKIAEDRQPIFEGMVRRMLGLTQEIEIFEERYRDHPQLGILIAQQPGLRVPVTATPFEALTWAVTGQQISVNAAVSLRRKLIGATNTPHSCGLFCYPDARRILELPEETLRQAGFSTTKTRTLLALSALVADNELPLDAWVETLPVDVIREKLEAVRGIGPWTVNYGLLRGFGWLDGSLHGDAAVRRGLQALLGAQDKISEENTKVWLAQFSPWRALVGAHLWAAPVAIALEHHHHHH | not soluble |
| MSEKLRRCRKELTAAIDRAFEGVRHSQECTAQQRLDAPSLTSQPVHRLLCRNPLAACPSAAPYSGASCAPESENPAFGTHHIPVNSKLQQPLYPKRKPLTSKENVLMQSSILARDRQFWRAAGDGEDWRKDSLRKDMERDLKADPNVLLSSSSQEVTKDLLDMIDHTSIRTIEELAGKLEFENELNRVCGHCQDSPFKEEAWALLVDESPQKALDADPGSLKQALDDQNIVETVLDLEEDYNLMTSFKYQIE | soluble |
| MSLNMKVLITASSRGIGFNLAKELLNKGHEVTITSSNIRNIENAYKELRELGTVHYFQADLSSKEDIKRMVKDAWDAMGRIEALIWNAPNVKCEPCMVHEARYRDWLEAALLHLVSPGYITTLLIQAWLEKKIKGVLIYLSSASVLEPMPPLLLADTARAGLVQLTKGITRAYGGKGIRAYVVLLGSFDTPGARENLAKIAEERGMSLEEIWRKEVIERTPLKRTGKWSELGALIDFLLSENAEYMMGSTILFDGAMTRGVNEGHHHHHH | not soluble |
| GHHHHHHAIAENLYFQSHGHGGYDSDFSDDEHCGESSKRKKRTVEDDLLLQKPFQKEKHGKVAHKQVAAELLDREEARNRRFHLIAMDAYQRHRKFVNDYILYYGGKKEDFKRLGENDKTDLDVIRENHRFLWNEEDEMDMTWEKRLAKKYYDKLFKEYCIADLSKYKENKFGFRWRVEKEVISGKGQFFCGNKYCDKKEGLKSWEVNFGYIEHGEKRNALVKLRLCQECSIKLNFHHRRKEIKSKKRKDKTKKDCEESSHKKSRLSSAEEASKKKDKGHSSSKKSEDSLLRNSDEEESASESELWKGPLPETDEKSQEEEFDEYFQDLFL | soluble |
| MGSDKIHHHHHHMSELRQQCLWEHVSKPTVAAQALAGEHKADVCVIGGGITGLSAAIHLLEQGKSVIVLEAWKIGHGGSGRNVGLVNAGTWIRPDDVEATLGQKQGSRLNKVLGEAPAEVFAMIERLGIDCQAQHKGTLHMAHNATGIADLEARHEQWRRRGADVELLTGAQCQEYCGTDKISAALLDRRAGTINPMGYTQGLAAAVTRLGGKIFQQSSVEGLEREGDGWRVKTARGAVRAEKVVISTGAYTEGDWSNLQKQFFRGYYYQVASKPLQGIAADKVLPHGQGSWDTRTVLSSIRRDDQGRLLLGSLGRVDNKPAWFVRSWADRIQSHYYPELGKVEWEMHWTGCIDFTPDHLMRLFEPAPGLVAVTGYNGRGNTTGTVIGRAFAEFLLKGEADSLPIPFSPMSGVSAPSLRTAFYESGFSLYHAGQCLRVVL | not soluble |
| MSLKRALAALVLLGAVAQAQTGHAGHSVGSVSTGVSMPAMSKQMVSALGPLRGRAFDIKFAQLMMDHHQMALDMAGQELSSGKNAQVRAAAKKVVAAQQQEIALMTGWLRKWTGKVYVPQTLPMVLTGTVNTDRWFLTEMLPHHQGAVDMSKLAAGRSGSSEVKKLALSIIRSQTAEMNTYRQLLKTVKEGHHHHHH | soluble |
| MGSDKIHHHHHHMEENYRRYPIGIQNFEQLRNRNCVYVDKTELVYRLANTDSVYFLSRPRRFGKSLLVSTLEAYFQGKKDLFKGLAMERLEKDWNVYPVFHIDFSLTKYTTLFDLQEQLNLFLLRCEKVYGAEKEEKTPAARLQGMIRRAYEQTGLPVVVLIDEYDAPLLDSNSNIPLQQELRNELRKFFSPLKGLGQYLRFLFITGISKFSQMSIFSELNNLKNISMRDDFSAICGITERELLDELRPDIERMALANGETYEAACAHLKRQYDGYHFSKHCEDIYNPFSLFNAFDAKEYKNFWFSTGTPTFLIDLLQETDFDVRQLEGVEATDEQFDAPTERVTSPIPVLYQSGYLTIKGYDPEFQVYRLAYPNGEVRKGFIESLLPAYLELPGQSSTFYVVSFIRDLRKGDIESCLERTRSFFASIPNDLENKTEKHYQTIFYLLFRLMGMYVDSEVKSAVGRADVVIKMQDAIYVLEFKYDGTAREALAQINSRLYAVPYRKDGRRIVKVGINFDSATRTIGDWVIEVEDTVDNL | not soluble |
| MYIVVSTGDRAARIASKLPDCIIIDRDPDSAERLKEKGFNVLNGDASNPEILARFDMGEKIILADNDDFNIKVVKTAKLLGLDVYAVAADEDKCWLYEVEGVSKICGSVEALLSTIFRKNRYFEIQVEAEMEGKTL | not soluble |
| MKTLILFSTRDGQTREIASYLASELKELGIQADVANVHRIEEPQWENYDRVVIGASIRYGHYHSAFQEFVKKHATRLNSMPSAFYSVNLVARKPEKRTPQTNSYARKFLMNSQWRPDRCAVIAGALRYPRYRWYDRFMIKLIMKMSGGETDTRKEVVYTDWEQVANFAREIAHLTDKPTLK | not soluble |
| MLRKQVYLTPEEEAKLKRLARATGRTEAEILRLALDLLPEEEAPLLLALAEEGLLEVPERAVTPARMEEAYRRYLDRVAGRGLGLSKAVLADREGR | soluble |
| MGSDKIHHHHHHMVSYKILSVANKLKNIRDKYGLSQEDLAGNEITRNLISQIEHNKANLTRSAAEIMLKNLKKICDKKNVQVDEDINYLMEDEKSQAIKVLDKYIDDLRDLTIYKDNVFINKLREVEDFLVTWDFRDKKITIFELAGDYFSSTNDFYNASLYYEKAKALIDINIYSDNIVHILRKLSMTYYYMLRYQDDINCCEFALKQFKNMDEEYRCIFLFNSSLCYGQLKKYDLALKRLNEVESIIKNIDQNKYYEVLIQKAICYQWMKEYQKSLDIYNKLLESIDKSDYEKYLFILVNSSDIYVENSNFEKAESNLRIILENINNLNESSTLLPSTYLEMSRILKKLGYTKDAELYCLKSLNYAKRNTHYYLVNDIYGELLDIYKTLNVPEKVQTIKDEFFSNSSRDKNLNSKLMFKLLDFYFATNDIHSIKEIYDFSKNFIQERMINLCY | not soluble |
| MLSVRTPLATIADQQQLQLSPLKRLTLADKENTPPTLSSTRVLASKAARRIFQDSAELESKAPTNPSVEDEPLLRENPRRFVVFPIEYHDIWQMYKKAEASFWTAEEVDLSKDIQHWEALKPDERHFISHVLAFFAASDGIVNENLVERFSQEVQVTEARCFYGFQIAMENIHSEMYSLLIDTYIKDPKEREYLFNAIETMPCVKKKADWALRWIGDKEATYGERVVAFAAVEGIFFSGSFASIFWLKKRGLMPGLTFSNELISRDEGLHCDFACLMFKHLVHKPAEQRVREIITNAVRIEQEFLTEALPVKLIGMNCTLMKQYIEFVADRLMLELGFNKIFRVENPFDFMENISLEGKTNFFEKRVGEYQRMGVMSNSTENSFTLDADF | soluble |
